Residue numbers refer to the chain shown, from its start.
T1: human TL1A extracellular domain with N-terminal HIS and FLAG tag (human, UniProt O95150 72-251)
T1 construct: whole entry named. ~70 kDa fraction purified by gel filtration
T1 sequence: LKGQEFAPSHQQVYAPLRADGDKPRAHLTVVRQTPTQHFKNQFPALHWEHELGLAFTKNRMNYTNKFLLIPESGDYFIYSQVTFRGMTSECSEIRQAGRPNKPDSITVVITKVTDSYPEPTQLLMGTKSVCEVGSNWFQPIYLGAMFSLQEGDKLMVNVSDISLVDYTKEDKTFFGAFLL

T2: human TL1A extracellular domain with N-terminal HIS and FLAG tag (human, UniProt O95150 72-251)
T2 construct: the whole entry is named; also called TNFSF15
T2 sequence: T1 sequence

B1: 320-193 (antibody, human IgG1, name in Kabat numbering, V domains shown)
VH: QVQLVQSGAEVKKPGASVKVSCKASGYTFTSYDINWVRQAPGQGLEWMGWLNPNSGNTGYAQKFQGRVTMTADRSTSTAYMELSSLRSEDTAVYYCAREVPETAAFEYWGQGTLVTVSS
VL: QSVLTQPPSVSGAPGQRVTISCSSSSSDIGAGLGVHWYQQLPGTAPKLLIEGYYNRPSGVPDRFSGSKSGTSASLTITGLLPEDEGDYYCQSYDGTLSALFGGGTKLTVLG
notes: human IgG1, lambda
B2: 320-615 (antibody, human IgG1, name in Kabat numbering, V domains shown)
VH: B1 VH with N57Y
VL: B1 VL with S23T, G95Y
notes: full-length human IgG1, lambda
B3: 320-613 (antibody, human IgG1, name in Kabat numbering, V domains shown)
VH: B1 VH with N57Y
VL: B1 VL with S23T, Y93W, G95Y
notes: as for B2
B4: 320-218 (antibody, human IgG1, name in Kabat numbering, V domains shown)
VH: B1 VH
VL: B1 VL with S23T, S26Q
notes: human IgG1, lambda
B5: 320-616 (antibody, human IgG1, name in Kabat numbering, V domains shown)
VH: B1 VH with N57Y
VL: B1 VL with S23T, G95A
notes: as for B2
B6: 320-601 (antibody, human IgG1, name in Kabat numbering, V domains shown)
VH: B1 VH with N57Y
VL: B1 VL with S23T, Y93F
notes: as for B2
B7: 320-194 (antibody, human IgG1, name in Kabat numbering, V domains shown)
VH: B1 VH
VL: B1 VL with S23Q
notes: human IgG1, lambda
B8: 320-203 (antibody, human IgG1, name in Kabat numbering, V domains shown)
VH: B1 VH
VL: B1 VL with S23T, S24D
notes: human IgG1, lambda
B9: 320-197 (antibody, human IgG1, name in Kabat numbering, V domains shown)
VH: B1 VH
VL: B1 VL with S23K
notes: human IgG1, lambda
B10: 320-611 (antibody, human IgG1, name in Kabat numbering, V domains shown)
VH: B1 VH with N57Y
VL: B1 VL with S23T, Y93W, G95K
notes: as for B2
B11: 320-614 (antibody, human IgG1, name in Kabat numbering, V domains shown)
VH: B1 VH with N57Y
VL: B1 VL with S23T, G95K
notes: as for B2
B12: 320-199 (antibody, human IgG1, name in Kabat numbering, V domains shown)
VH: B1 VH
VL: B1 VL with S23W
notes: human IgG1, lambda

How the values were obtained:
[1] = target: T1, human TL1A extracellular domain with …; experiment: SPR run 2; purified antibody on Protein A; TL1A 10 ug/mL; timepoint 44
From the text: (§1) 1.5. Antibody expression and antigen binding as determined by SPR. Using a CM5 sensor chip (GE Healthcare) Protein A (Pierce) was coupled to the chip surface using an amine coupling kit (GE Healthcare). Protein A was coupled on flow cell 1 and 2 (or alternatively 3 and 4) using a BIACORE® T200. […] The amount of supernatant or purified protein (as well as the concentration) injected during the capture stage varied between runs and is specified in the header of the Tables 3-11. At the end of injection of the supernatant or purified antibody the change in response units was measured. This value was reported as Capture Level in Tables 3-11. […] The response units were measured prior to the end of the dissociation phase. […] The sensorgrams were double referenced (flow cell 2 is subtracted from flow cell 1 and a buffer blank). As there were a large number of antibody variants to screen, these were screened across different runs (Tables 3-11). […] A summary of the conditions used in each run is below:
(§2) 2.1. […] In some experiment the antibodies were purified using Protein A chromatography (See 1.4) and purified antibodies were used in BIACORE® (GE Healthcare) experiments.

[2] = target: T1, human TL1A extracellular domain with …; experiment: SPR run 2; purified antibody on Protein A; TL1A 10 ug/mL; timepoint 590
From the text: as §1, §2

[3] = target: T1, human TL1A extracellular domain with …; experiment: SPR run 2; supernatant on Protein A; TL1A 10 ug/mL; timepoint 220
From the text: as §1, §2

[4] = target: T1, human TL1A extracellular domain with …; experiment: SPR run 2; supernatant on Protein A; TL1A 10 ug/mL; timepoint 44
From the text: as §1, §2

[5] = target: T2, human TL1A extracellular domain with …; experiment: SPR Run 9, antibody on Protein A, TL1A 5 ug/mL, timepoint 590
From the text: as §1, §2

[6] = target: T2, human TL1A extracellular domain with …; experiment: SPR Run 9, antibody on Protein A, TL1A 5 ug/mL, timepoint 44
From the text: as §1, §2

[7] = target: T2, human TL1A extracellular domain with …; experiment: cell-based or functional assay

Row | Binder | TL1A Binding Level (Early) [1] [RU] | TL1A Binding Level (Late) [2] [RU] | TL1A Binding Level (Late) [3] [RU] | TL1A Binding Level (Early) [4] [RU] | TL1A Binding Level (Late) [5] [RU] | TL1A Binding Level (Early) [6] [RU] | Antibody IC50, TL1A induced caspase potency assay in TF-1 cells [7] [ng/mL] | Fold improvement over 320-179, TL1A induced caspase potency assay in TF-1 cells [7] [fold]
1 | B1 | 103 | 91 | 227 | 249 |  |  |  | 
2 | B2 |  |  |  |  | 108 | 113 |  | 
3 | B3 |  |  |  |  | 131 | 135 | 10 | 4
4 | B4 | 92 | 80 | 218 | 239 |  |  |  | 
5 | B5 |  |  |  |  | 112 | 120 |  | 
6 | B6 |  |  |  |  | 120 | 121 | 2 | 10
7 | B7 | 76 | 64 | 226 | 247 |  |  |  | 
8 | B8 | 65 | 35 | 24 | 61 |  |  |  | 
9 | B9 | 105 | 94 | 232 | 255 |  |  |  | 
10 | B10 |  |  |  |  | 127 | 125 | 5 | 8
11 | B11 |  |  |  |  | 111 | 122 |  | 
12 | B12 | 97 | 85 | 233 | 251 |  |  |  | 

From patent US20170081400A1 (CEPHALON, published 2017)
